Test results as given in IntAct's records for PubMed 31515488.

B1: Synaptotagmin-like protein 5 (Homo sapiens), Q8TDW5 (parent)
chain: MSKNSEFINLSFLLDHEKEMILGVLKRDEYLKKVEDKRIRKLKNELLEAKRRSGKTQQEASRVCVHCHRNLGLIFDRGDPCQACSLRVCRECRVAGPNGSWKCTVCDKIAQLRIITGEWFFEEKAKRFKQVNVLGTDVVRQSILRRSPGAEEVQSQEQTRQDAEKSDTSPVAGKKASHDGPKRKGFLLSKFRSATRGEIITPKTDTGRSYSLDLDGQHFRSLKSPPGSDRGSTGSSDLNDQEPGPRTPKSSRSNGVTPGTQSSPAPSTRTVTSVISREYGFENSMDLAAIEGTSQELTKSHRRNTSGTPSIAVSGTSLSSDQSRSELDLSESFTEDSEDTVSIRSKSVPGALDKDSLEETEESIDALVSSQLSTNTHRLASGLSTTSLNSMMSVYSETGDYGNVKVSGEILLHISYCYKTGGLYIFVKNCRNLAIGDEKKQRTDAYVKSYLLPDKSRNNKRKTKIRTGTNPEFNETLKYTISHTQLETRTLQLSVWHYDRFGRNSFLGEVEIPFDSWNFENPTDEWFVLQPKVEFAPDIGLQYKGELTVVLRYIPPEENLMLPPEQLQGNKTFKKGKKKESPVISGGILEVFIKEAKNLTAVKSGGTSDSFVKGYLLPDDSKATKHKTLVIKKSVNPQWNHTFMFSGIHPQDIKNVCLELTIWDKEAFSSNIFLGGVRLNSGSGVSHGKNVDWMDSQGEEQRLWQKMANNPGTPFEGVLMLRSSMGKCRL
B2: Coiled-coil domain-containing protein 60 (Homo sapiens), Q8IWA6 (parent)
chain: MTKVPATKKLQSSPNSGAVRPFYASENLRQVPDKPMKSIKYMDKEIINLKKDLIRSRFLIQSVKIGRGYFAILREETAKKKKQQQLQKLKEEERNKFQPAEKISEIHYGDTLLSTYDDEKLKTLGARVTRRPFTPIHSCIISPSLTEAHVEPLFRQLCALHWLLEALTIDHTHHTMKPVITCWNPKDPGGSKSTIKKINKDKSMGQKWEHFITAPKTKKFKIPTMRVTNRKPSRRGSTLSLSRASGGSSPQSSMISVNPGSDEPPSVNTQVTSSKDIEDNESSSTKPDEEPLYMNLQKLLEMVREDARRTVTIENGMQRKAPSILSVLKQNKSNSAYKEMQTTLKSSERSSSTSAESHIQPVQKKSKNRTNCDINIHYKSGVCNTMRAKFYSVAQEAGFCLQDKMEILMKRQEERGIQKFRAFVLVSNFQKDIAKMRHHISVVKGDAEEIADHWYFDLLSKLPEDLKNFRPAKKILVKLQKFGENLDLRIRPHVLLKVLQDLRIWELCSPDIAVAIEFVREHIIHMPQEDYISWLQSRINIPIGPYSALR
B3: Tripartite motif-containing protein 59 (Homo sapiens), Q8IWR1 (parent)
chain: MHNFEEELTCPICYSIFEDPRVLPCSHTFCRNCLENILQASGNFYIWRPLRIPLKCPNCRSITEIAPTGIESLPVNFALRAIIEKYQQEDHPDIVTCPEHYRQPLNVYCLLDKKLVCGHCLTIGQHHGHPIDDLQSAYLKEKDTPQKLLEQLTDTHWTDLTHLIEKLKEQKSHSEKMIQGDKEAVLQYFKELNDTLEQKKKSFLTALCDVGNLINQEYTPQIERMKEIREQQLELMALTISLQEESPLKFLEKVDDVRQHVQILKQRPLPEVQPVEIYPRVSKILKEEWSRTEIGQIKNVLIPKMKISPKRMSCSWPGKDEKEVEFLKILNIVVVTLISVILMSILFFNQHIITFLSEITLIWFSEASLSVYQSLSNSLHKVKNILCHIFYLLKEFVWKIVSH
partner: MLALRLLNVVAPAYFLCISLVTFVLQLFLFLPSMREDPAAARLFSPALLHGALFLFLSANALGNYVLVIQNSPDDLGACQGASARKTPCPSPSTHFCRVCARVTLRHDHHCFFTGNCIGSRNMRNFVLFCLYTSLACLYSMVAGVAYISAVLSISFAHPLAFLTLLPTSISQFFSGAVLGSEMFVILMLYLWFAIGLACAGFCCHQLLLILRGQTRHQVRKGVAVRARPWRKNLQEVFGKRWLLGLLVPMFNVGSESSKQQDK
B4: Protein FAM168A (Homo sapiens), Q92567 (parent)
chain: MNPVYSPVQPGAPYGNPKNMAYTGYPTAYPAAAPAYNPSLYPTNSPSYAPEFQFLHSAYATLLMKQAWPQNSSSCGTEGTFHLPVDTGTENRTYQASSAAFRYTAGTPYKVPPTQSNTAPPPYSPSPNPYQTAMYPIRSAYPQQNLYAQGAYYTQPVYAAQPHVIHHTTVVQPNSIPSAIYPAPVAAPRTNGVAMGMVAGTTMAMSAGTLLTTPQHTAIGAHPVSMPTYRAQGTPAYSYVPPHW
partner: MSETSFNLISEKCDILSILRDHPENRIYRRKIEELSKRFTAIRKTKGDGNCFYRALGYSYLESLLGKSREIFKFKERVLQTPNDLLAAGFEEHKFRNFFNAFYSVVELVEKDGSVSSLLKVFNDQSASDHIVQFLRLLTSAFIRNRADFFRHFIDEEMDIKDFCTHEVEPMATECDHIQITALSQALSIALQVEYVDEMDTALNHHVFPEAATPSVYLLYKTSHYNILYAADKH

Variants of: B1
Conditions: with cep70_human CEP70, Q8NHQ1
cep70_human CEP70, Q8NHQ1, sequence (Q8NHQ1 whole entry): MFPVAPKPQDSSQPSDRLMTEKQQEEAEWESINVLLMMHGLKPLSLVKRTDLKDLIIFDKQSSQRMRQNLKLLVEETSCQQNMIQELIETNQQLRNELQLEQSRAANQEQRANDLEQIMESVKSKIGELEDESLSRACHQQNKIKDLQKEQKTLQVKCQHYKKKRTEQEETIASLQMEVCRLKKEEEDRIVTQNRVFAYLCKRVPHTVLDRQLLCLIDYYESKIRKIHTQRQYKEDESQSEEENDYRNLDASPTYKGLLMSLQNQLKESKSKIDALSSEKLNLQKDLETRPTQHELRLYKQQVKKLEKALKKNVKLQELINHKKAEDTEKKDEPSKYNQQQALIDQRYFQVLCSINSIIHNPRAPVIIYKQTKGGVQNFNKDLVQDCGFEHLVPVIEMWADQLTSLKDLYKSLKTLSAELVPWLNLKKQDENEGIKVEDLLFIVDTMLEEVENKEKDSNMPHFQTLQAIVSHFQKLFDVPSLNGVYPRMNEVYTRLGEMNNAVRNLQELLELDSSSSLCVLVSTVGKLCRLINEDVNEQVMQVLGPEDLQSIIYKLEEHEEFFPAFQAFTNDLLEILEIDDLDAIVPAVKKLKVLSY

effect of a mutation on the interaction	Variant
with no effect	S369P
with no effect	R160H

Variants of: B2
Conditions: with mtus2_human MTUS2, Q5JR59
mtus2_human MTUS2, Q5JR59, sequence (Q5JR59 whole entry): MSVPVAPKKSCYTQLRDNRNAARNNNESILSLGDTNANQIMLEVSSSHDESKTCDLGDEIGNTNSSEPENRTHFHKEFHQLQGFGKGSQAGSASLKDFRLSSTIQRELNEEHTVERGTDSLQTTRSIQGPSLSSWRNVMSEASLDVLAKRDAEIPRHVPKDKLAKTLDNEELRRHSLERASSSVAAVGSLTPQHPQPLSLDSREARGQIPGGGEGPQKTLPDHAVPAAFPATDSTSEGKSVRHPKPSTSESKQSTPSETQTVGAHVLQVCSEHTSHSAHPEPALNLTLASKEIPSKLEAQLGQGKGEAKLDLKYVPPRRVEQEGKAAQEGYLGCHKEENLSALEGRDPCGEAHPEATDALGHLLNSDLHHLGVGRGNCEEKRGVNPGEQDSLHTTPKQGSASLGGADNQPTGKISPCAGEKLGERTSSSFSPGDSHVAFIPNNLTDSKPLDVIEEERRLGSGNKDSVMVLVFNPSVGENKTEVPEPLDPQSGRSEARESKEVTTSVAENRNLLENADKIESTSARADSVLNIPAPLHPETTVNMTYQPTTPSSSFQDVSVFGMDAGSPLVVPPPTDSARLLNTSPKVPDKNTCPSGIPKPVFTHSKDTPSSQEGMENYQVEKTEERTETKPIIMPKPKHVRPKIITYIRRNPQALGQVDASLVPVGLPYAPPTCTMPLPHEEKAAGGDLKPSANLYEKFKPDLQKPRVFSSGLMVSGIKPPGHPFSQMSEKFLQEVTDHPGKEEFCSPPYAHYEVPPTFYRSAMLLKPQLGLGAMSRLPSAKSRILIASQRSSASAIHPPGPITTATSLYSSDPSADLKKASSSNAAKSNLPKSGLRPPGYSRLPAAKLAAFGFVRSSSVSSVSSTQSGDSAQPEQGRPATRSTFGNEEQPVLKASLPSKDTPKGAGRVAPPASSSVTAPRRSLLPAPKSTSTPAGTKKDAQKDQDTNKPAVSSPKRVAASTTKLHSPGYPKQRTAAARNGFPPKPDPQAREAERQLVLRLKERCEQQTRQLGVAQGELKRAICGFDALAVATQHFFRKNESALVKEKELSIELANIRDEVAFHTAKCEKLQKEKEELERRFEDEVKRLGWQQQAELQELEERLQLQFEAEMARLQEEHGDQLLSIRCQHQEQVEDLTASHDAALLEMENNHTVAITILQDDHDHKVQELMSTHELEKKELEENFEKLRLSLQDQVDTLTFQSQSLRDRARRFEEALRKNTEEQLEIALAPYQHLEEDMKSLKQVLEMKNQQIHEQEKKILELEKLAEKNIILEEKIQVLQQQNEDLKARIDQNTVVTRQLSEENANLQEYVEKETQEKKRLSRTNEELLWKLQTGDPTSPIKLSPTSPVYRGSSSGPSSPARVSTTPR

effect of a mutation on the interaction	Variant
disrupting interaction strength	MTKVPATKKLQSSPNSGAVRPFYASENLRQVPDKPMKSIKYMDKEVINLKKDLIRSRFLIQSVKIGRGYFAILREETAKKKKQQQLQKLKEEERNKFQPAEKISEIHYGDTLLSTYDDEKLKTLGARVTRRPFTPIHSCIISPSLTEAHVEPLFRQLCALHWLLEALTIDHTHHTMKPVITCWNPKDPGGSKSTIKKINKDKSMGQKWEHFITAPKTKKFKIPTMRVTNRKPSRRGSTLSLSRASGGSSPQSSMISVNPGSDEPPSVNTQVTSSKDIEDNESSSTKPDEEPLYMNLQKLLEMVREDARRTVTIENGMQRKAPSILSVLKQNKSNSAYKEMQTTLKSSERSSSTSAESHIQPVQKKSKNRTNCDINIHYKSGVCNTMRAKFYSVAQEAGFCLQDKMEILMKRQEERGIQKFRAFVLVSNFQKDIAKMRHHISVVKGDAEEIADHWYFDLLSKLPEDLKNFRPAKKILVKLQKFGENLDLRIRPHVLLKVLQDLRIWELCSPDIAVAIEFVREHIIHMPQEDYISWLQSRINIPIGPYSALR [I46V]

Variants of: B3
Conditions: with zdh22_human ZDHHC22, Q8N966

effect of a mutation on the interaction	Variant
with no effect	MHNFEEELTCPICYSIFEDPRVLPCSHTFCRNCLENILQASGNFYIWRPLRIPLKCPNCRSITEIAPTGIESLPVNFALRAIIEKYQQEDHPDIVTCPEHYRQPLNVYCLLDKKLVCGHCLTIGQHHGHPIDDLQSAYLKEKDTPQKLLEQLTDTHWTDLTHLIEKLKEQKSHSEKMIQGDKEAVLQYFKELNDTLEQKKKSFLTALCDVGNLINQEYTPQIERMKEIREQQLELMALTISLQEESPLKFLEKVDDVRQHVQILKQRPLPEVQPVEVYPRVSKILKEEWSRTEIGQIKNVLIPKMKISPKRMSCSWPGKDEKEVEFLKILNIVVVTLISVILMSILFFNQHIITFLSEITLIWFSEASLSVYQSLSNSLHKVKNILCHIFYLLKEFVWKIVSH [I277V]

Variants of: B4
Conditions: with otub2_human OTUB2, Q96DC9

effect of a mutation on the interaction	Variant
disrupting interaction strength	MNPVYSPVQPGAPYGNPKNMAYTGYPTAYPAAAPAYNPSLYPTNSPSYAPEFQFLHSAYATLLMKQAWPQNSSSCGTEGTFHLPVDTGTENRTYQASSAAFRYTAGTPYKVPPTQSNTAPPRYSPSPNPYQTAMYPIRSAYPQQNLYAQGAYYTQPVYAAQPHVIHHTTVVQPNSIPSAIYPAPVAAPRTNGVAMGMVAGTTMAMSAGTLLTTPQHTAIGAHPVSMPTYRAQGTPAYSYVPPHW [P122R]
